The values below come from article PMC8326586.

In this data set the test system is T1, AbTetR (TetR class G) (Acinetobacter baumannii AYE), ORF:695ec09f.
T1 sequence: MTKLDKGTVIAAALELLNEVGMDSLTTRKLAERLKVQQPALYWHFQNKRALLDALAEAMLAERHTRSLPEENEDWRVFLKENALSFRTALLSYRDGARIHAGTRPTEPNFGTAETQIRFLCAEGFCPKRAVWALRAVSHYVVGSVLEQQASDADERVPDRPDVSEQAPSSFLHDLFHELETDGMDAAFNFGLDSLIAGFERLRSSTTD
The data set is described as follows: EMSA.

Consider “ATCAACGATAAGGAGATGGACATATAACTTATCGGTGATAAATTGTCAAGCACTGGCGAAGGAACGTGA (double strand) [70 bp tetR-tetA(G) fragment]”, for which the binding entry was “binds”.
Next, “CGAATCAAGCAGGAACCATCCAAGATTGGCATAAAAGGTACATTCAACCTTTTCACTGCATCCCATTGGTGCACGTACTCGGTCTTGCAACTCGGA (double strand) [96 bp non-binding sequence]”: “no binding”; “CTGAAACTCCAGCGCCGCTCAATGGAGCGACTTTATCAACGATAAGGAGATGGACATATAACTTA (double strand) [65 bp tetR-tetA(G) fragment]”: “binds”.
Next, “CTGAAACTCCAGCGCCGCTCAATGGAGCGACTTTATCAACGATAAGGAGATGGACATATAACTTATCGGTGATAAATTGTCAAGCACTGGCGAAGGAACGTGA (double strand) [103 bp tetR-tetA(G) fragment]”: “binds”.
“CTGAAACTCCAGCGCCGCTCAATGGAGCGACTTTATCAACGATAAGGAGATGGACATATAACTTATCGGTGATAAATTGTCAAGCACTGGCGAAGGAACGTGAATGACCAAACTGGACAAGGGCACCGTGATCGCGGCGGCGCTAGAGCTGTTGAACGAGGTTGGCATGGACAGCCTGACGACGCGGAAGCTCGCTGAACGCCTCAAGGTTCAGCA (double strand) [216 bp tetR-tetA(G) fragment]”: the binding entry is reported as “binds”.
Next, “GCACAAGCTCACGCAGAAGCGTCGGAAGGACGGGCATGATGAGGCCGAGACCCATGGCGTCAAGACCCACGATCAGCAGGGCAATGATGGCAGAGCTGCGCACCTGAAACTCCAGCGCCGCTCAATGGAGCGACTTTATCAACGATAAGGAGATGGACATATAACTTATCGGTGATAAATTGTCAAGCACTGGCGAAGGAACGTGA (double strand) [206 bp tetR-tetA(G) fragment]”: “binds”.
